The nature of this data set: soluble on expression in E. coli; label from the status in PepcDB or PDB records.
Regarding “MGQGAPLFADKGGEIAALMRGAYFVAHNVDFDLPFLQAELERAGWPPFAGPTIDTVELARIVLPTAESYKLGDLARQLGLRHDRPHQADSDAEVTAKLFIALLKRLSRLPLMTLEQLRGLARHLKSDIYLLLDAVIAKKRNKAPADRAVAVYRGIALKQPAPEPDESDRRPALASFAAFCEQEPPLPLPGYKRRAGQWEMMRLVYEALSTSQHALIEAGTGLGKSLAYLIPAAFFACEQQERVVISTHTLQLQEQLIRRDWPVLRQIAPFPLRVAVLKGKQNYLSLDKFASFLSEPSDTYDAALLKCQVLVWLLETDSGDLDELNVSSGARLLLSALAIGEEEDGGRHHFFARAKERSERADVVITNHALLLHDLTGPAPLLPPFRHLIIDEAHRLEDAAARCFGEQIGYVSFRLLTAKIAQTIAKWQEAEQDAPNGALVRCQQRLEELQFEGDELFRLLRRYALDKKPARAGRCRYRFSPTDEQSRAWQAAVELCWRLRDLAAALSAEAKPLLSADTSGDFPPSALLSADLAALNRQMAALVRLLTEKEPGVVRWIEADEKGAANAVRLYSQPVDLADFFADQLFMKKRSVVLTSATLTVRGRFTYMAARLGLEDFYPLCRSFPPPFRYEEQAALFVPADMPLVSAVPLEDYAEAVAASVLAIARRLGRRVLVLFPSYELLKLTVDALKTEEEGEPFVLIAQGVQSGSPAKLLRTFLQFEHAVLFGTSSFWEGVDLPGSALDVLVIARLPFAPPDDPVMEAKSERIRLEGGDPFSELALPEAVLRFKQGFGRLIRTEDDKGAVFVLDRRLMASPYGADFLASLPPLSVHEGALSELLDKAETWLS”, the “soluble on expression in E. coli” value is given as “not soluble”.

Regarding “MGQNDLVKTLRMNYLFDFYQSLLTNKQRNYLELFYLEDYSLSEIADTFNVSRQAVYDNIRRTGDLVEDYEKKLELYQKFEQRREIYDEMKQHLSNPEQIQRYIQQLEDLE”, the “soluble on expression in E. coli” value is “not soluble”.

For “MGQVEVIDRRQSVFGDDIQLQKRSSSYEIISNGVFLMSTENGRSEREMVTLGAQHMKNAVHSVLIGGLGVGITADEAVHLNDHVQVHVVEIEPSVVEWQYRYLYPFSNQALEHERTAIIISDIQQWLRTNERTYDLICLDTDNGPDWMVHKQNASLYGKIGLELVRERVRVGGAVSFWSASASESFLHELETLFDRVYEHAVSISHTLPPDYVYVACRDLEHHHHHH”, the “soluble on expression in E. coli” value was “soluble”.

Consider “MGRDRISELPDGLLNHILMYLHIEESIRTSVLSSRWRKLWLKVPGLDVNVHDFPADGNLFESLMDKFLEVNRGRLQNFKLNYESNLYYLMDRFVPWIATVVDRGIQHLDVTATDCPPWTIDFMPANICKSKTLVSLKLVNVGLDTPKFVVSLPCLKIMHLEDIFYSPLIAENLISGCPVLEDLTIVRNHEDFLNFLRVMSQTLKNFRLTFDWGMGSNDFSVEIDAPGLKYMSFRDSQSDRIVVKNLSSLVKIDLDTEFNLKFGLGSPLEPEDLTKRDIIRDFLTGISSVKHMIISHPTLEVLYRYSKIGQLPKFHNLYHLQAVFSSSLLQLLPAFLEICPNLKNLILDYSISAEPEQIDFTNLPRCLISTLEYVEIKQLTMREESGIKLVKYFLENSAVLKKLTLSFIDSPMTNQESEIYMQLLTSTKRSRGCHVLIL”, for which the “soluble on expression in E. coli” value was “soluble”.

For “MGRPRVARLDRERIAEAALELVDRDGDFRMPDLARHLNVQVSSIYHHAKGRAAVVELVRHRVVREIDGSAFERLPWDEAFSEWARSYRAAFSRHPTAIRLLATETVRDPGSLSVYHSAAAGLRGAGFPDDHIMAVITAAENFLLGAALDAAAPEVMIEADSTTTDDALTRALAAAPRGPERAEQAFELGLAALLAGFHHLLQECGAVQR”, the “soluble on expression in E. coli” value was “soluble”.

Consider “MGSCMKWDYGEMEDFSVSASGLFITNEGNFQYSNATLSYYDPATCEVENEVFYRANGFKLGDVAQSMVIRDGIGWIVVNNSHVIFAIDINTFKEVGRITGFTSPRYIHFLSDEKAYVTQIWDYRIFIINPKTYEITGYIECPDMDMESGSTEQMVQYGKYVYVNCWSYQNRILKIDTETDKVVDELTIGIQPTSLVMDKYNKMWTITDGGYEGSPYGYEAPSLYRIDAETFTVEKQFKFKLGDWPSEVQLNGTRDTLYWINNDIWRMPVEADRVPVRPFLEFRDTKYYGLTVNPNNGEVYVADAIDYQQQGIVYRYSPQGKLIDEFYVGLEHHHHHH”, for which the “soluble on expression in E. coli” value is on record as “soluble”.

For the sequence “MGSDKIHHHHHHAADGEGRGELSPKIKAGDLESKLIVPKNNGLKITGTFLDEISHDIPHQNWGEKEWDLDFQHMKRIGIDTVIMIRSGYRKFMTYPSPYLLKKGCYMPSVDLVDMYLRLAEKYNMKFYFGLYDSGRYWDTGDLSWEIEDNKYVIDEVWKMYGEKYKSFGGWYISGEISRATKGAIDAFRAMGKQCKDISNGLPTFISPWIDGKKAIMGTGKLTREDAVSVQQHEKEWNEIFDGIHEVVDACAFQDGHIDYDELDAFFTVNKKLADKYGMQCWTNAESFDRDMPIRFLPIKFDKLRMKLEAAKRAGYDKAITFEFSHFMSPQSAYLQAGHLYDRYREYFEIK”, the “soluble on expression in E. coli” value is “not soluble”.

Take “MGSDKIHHHHHHAADKRIDGNGNPETREIKISDYDEITFVGSADFEYEQSDKAPYLSVTIDENLFDYLVTEVEGGTLKIYPKSIKKGFNNNSYDLRPTVYKIKSNSKELKELNTVGSGSFIISKPTKVNRMEINMAGSGNVELRGPVKGYKLECNMAGSGNIIAKDIQLDNLSCSLASSGEIEVIGTVDRASFNVAGSGEIKAFDCQARKAECNIASSGEISVYATQILDANIVGSGEIHYKGDPEISKSIMGSGSINKVK”: the “soluble on expression in E. coli” value was “not soluble”.

Consider “MGSDKIHHHHHHAATVKLTIIKSDLDMKASGGTGTVEFAATGTVTATVNADWCQVIEVADHKVSISVDANTGYPGRSAQIVLTDGVSTQQATILQEGAIWKYNRDATYFTLTDAAEEVPVEMSSNLPIQVSIPADASQWLSYEMTSDGFKFIAKENLTGKIRSAIVKVTTGIREIEYALLQYDIDDLLGQWTGVVKVVATAFGINQVLSLEENTQIVKNPGGNGYIFQLPMTRLLGATIVLAVTYQDGALVITTPQQQNYALSDGQGGVMYGSIITKTDDGLYLQGKIILSPVLMNDGQVALAYITDAYMSMGLFKGRVPSTANYAGLSIDFPAILMQYAE”, for which the “soluble on expression in E. coli” value is recorded as “not soluble”.

With “MGSDKIHHHHHHAAVLSGCEFNEDFCIRNGELVAWCDFSGIRETPPVPEERHIIAFPSGMDIPSGEQMTFTQDTLRQSIPQGEYQFLFYTGNYEVSDIRDYHEARLMARTDTLEGEVYISGVQKFCCSAGFSQRLEYQRPKRVPITPSAFVQRLNIQINVSGNITPLAGLQGTLTGISTGRYLVSRERTGNASVTSLFSRKPETDRWKTSLYAFGFNPAAENILSVKIEMDGKDSVFNEEQKVDLTPYLRGFDSDELSLELDLHIGKELTIGEPVVIPDWEDIPETELPNYN”, the “soluble on expression in E. coli” value is “not soluble”.

Consider “MGSDKIHHHHHHACSDDDKVSISTVGITTTVDTTIEGLQLTGGTYTFENVNTSVKTDITYPAQSIELADGLYNVTFIGKGTYSQNGTPVEVDVQGVQQNVAVSGGSYKLELKVHVLNTGDPDFVIAEIFIPGTYNEAGKQYNGDQYIRIYNNSDKVLYADGLIFMESQFQTTQKYQSVDPDIMDEAIAVGSVVAVPGSGTDYPVQPGESFILCDNAINHKEANPNSIDLSKANFEWYIESKQDVDNPAVPNLDVYYCYSKTIWVLNKQGNRAYAIGRLPKSMTKEKYISDYAYNYTYIMQNGTASKPQSKYKFPNEWVIDAVNVGASNEWQWNVTSTGLDMGHTYIGMNNTVAENIGKCVMRKAAYKDGDREVLQDTNNSTVDFTPAATPSLFNK”, for which the “soluble on expression in E. coli” value is reported as “not soluble”.

For the sequence “MGSDKIHHHHHHADILNCILPAEMLTGTDIDYNRPYDKSLNAYPIYIEVNNGTDLTRLAPTFELTEGASIEPANGSTQNFTNPVRYTVTSEDKNWHRTYAINIHYPETKSIPTVFNFENVKTVPYNKNEYYVLYEAASGYSTLTWSSGNQGFALTGSGYTPNDFPTSISPNGRTGNCLQLITRKTGSLGTLVGMPIAAGNLFIGSFDIGSAMSDALSATKFGTTFYYEPIKLVGYYKYKAGPEFYENGESTNRKDVFNIYALFYEKTKDVQMLDGHIAKNNYEHENMVAAAVITDTHETSEWTRFELDFNYEHYGKTIDPQKLANGGYNVSIVLSASKDGDVFQGAPGSTLLIDDLELVCKQPLR”, the “soluble on expression in E. coli” value is given as “not soluble”.

As to “MGSDKIHHHHHHADSDDENSNFSSGITGMNLSAEVLKHQPMVEKYARENGISEYVNVLLAIIQVESGGTAEDVMQSSESLGLPPNSLDTESSIKQGCKYFASLLSSSKNQGIDDLNVAIQSYNYGGGYVGYVAGKGKKHTFNLAESFAREKSGGKKVTYTNPIAVAKNGGWRWNYGNMFYVELVNQYLTVPQVSGELAQKVMNEALKYQGWKYVYGGSNPNTSFDCSGLTQWCYGKAGISLPRTAQAQYDATQHLPLSQAKAGDLVFFHSTYNAGSYVTHVGIYVGNNQMYHAGDPIGYADLSSSYWQQHLIGAGRVKQ”, the “soluble on expression in E. coli” value is given as “not soluble”.

As to “MGSDKIHHHHHHADVRMPLIFGDHMVLQQDTKIAIFGWADAGETVEVVFAGQKVKTTADTDGTWRVNLKPIKTKKEGQTLTIAGKNKLVYSDVLVGDVWVASGQSNMEWGIKVRKEYADDISASEDPLLRLFFVPKNTSLEPLTDIEVPQGTSNPERAARWVLCTPEMLAKINGQGFSATAYYFARDMRAANGRPLGVIQSAWGGTRAEAWTSLSGLKQEPALAHYVAAYEKNVKDNPEILATYPQKQKEFDEAVREWDKTVGKEWNQAQKEWAIAVQAAQAAGKPAPPKPQPSVPRPPNPRKPNGGNNGPSNLFNAMISPLIPLSIKGVIWYQGEFNSGGSGKEYATLFSRMITDWREKWGIGDFPFVYVQLPNFEPVDPEPSVEGNGWRWVREGQLKALNLPNTAMAVTIDVGDPFDLHPVDKYDVGHRLALAARKLAYGEKIVGMGPLYKKMSVKGNKIILEFTNQGKKLVMGTSPYIPAGKPPHPKPTKLTGFGIAGADRKFVWADAVIEGNKVIVSSSEVAVPLAVRYGFSNSPRCNLYNEKGLPASPFRTDSWDK”, the “soluble on expression in E. coli” value is “not soluble”.

Regarding “MGSDKIHHHHHHADWKVGIQTWTFHNLTLMETLDKTQQLGMGYAEAFFFQELGAPFPKETYLNYDLSDDNCALLRHEFKIRGIKPIAFGVASYGTNEEWDKFFAFAHKIGAHIVTVEPELNQLDYIESLAKKYDMEVAIHNHPSPCIYASAEVVEKALKGRSPLMGVCADIGHWKRVGEDPLKNLQKLSGRIKVAHLKDLTDKMEDATWGTGILPVKAFVNELKRQHFNGLISIEYDDFKSDIQEIRNSLEFLQKCSK”, the “soluble on expression in E. coli” value is listed as “not soluble”.

Consider “MGSDKIHHHHHHAHELEANEKYPGKSVKAQTRKEIVTFFSESLSGKTTTFDAGKPLKLSEVEHYRDVVWQLWKEANDGFKEEKLIALDTLSSASTGYWKLPDSLEPNAVMPYYWGMKGTDEIGNELPLFLYLHGSGPKEREWSTGLNICRNFDDAPSVYFIPQIPNEGEYYRWWQKAKQFAWEKLLRQSLLLGKIDPNRVYVFGISEGGYGSQRLASFYADYWAAAGPMAGGEPLKNAPAENCSNIAFSLRTGDKDTGFYRNTLTGYVREAFDSLAHQHPGYFTHKIELIPGMGHSIDYRPTTPWLKQYVRNPYPKYVSWENFEMDGLYRKGFYNLYVKERSDEEGKSRTYYEMSISGNHISLKVDDVVYEATEKDQRWGIEMKFAKKYAQAHKGKVVIYLCDELVDLTEKVTLTVNGKKVFEGKVKADLKNMVNSCAVFFDPQRLYPAAIEVELK”, for which the “soluble on expression in E. coli” value is “not soluble”.

As to “MGSDKIHHHHHHALEENKEAKSLLEGIWLDDNTETALLRVKGDTLFYADAATAPVAFKIIGDSLITYGARTNGYKIEKQGEHIFWFHSAVGDVIRLHKSDTENDSLAFIHTREIPVYNEVIKKDSVVTYDNVRYRGYVYINPSKIKVMRPGVSEEGLGVDNVYYDNIIHICVYEGRKSLYAKDITKQMFKGVVPDDFLQWAILSDMDFMGVDSKGYHYQATVCIPDGASCYMVNITAGKDGGLAFELVR”, the “soluble on expression in E. coli” value is recorded as “not soluble”.

The values are drawn from the DeepSol protein solubility set.
